For this test, the target named is human polyomavirus (JC virus) T-antigen (JC virus (human polyomavirus)). The experiment in a line: competition on T-antigen positive cells, 1 hour: 100-fold excess of unconjugated pAb416 against the ^125I 8 Ab/CLIO conjugate.

As to “pAb416, a monoclonal antibody against T-antigen (IgG, not coupled to CLIO)”, the percent decrease of binding and internalization of ^125I-Ab-CLIO is above 80%.
